Assay [1] has as its target T1, hFCRL1/FcRH1-His (manufactured by R&D Systems) (human, UniProt Q96LA6 17-307).
T1 construct: Bought His-tagged recombinant human FCRL1; The protein in the assay is soluble and is probably only the extracellular part; not shown: His tag
T1 sequence: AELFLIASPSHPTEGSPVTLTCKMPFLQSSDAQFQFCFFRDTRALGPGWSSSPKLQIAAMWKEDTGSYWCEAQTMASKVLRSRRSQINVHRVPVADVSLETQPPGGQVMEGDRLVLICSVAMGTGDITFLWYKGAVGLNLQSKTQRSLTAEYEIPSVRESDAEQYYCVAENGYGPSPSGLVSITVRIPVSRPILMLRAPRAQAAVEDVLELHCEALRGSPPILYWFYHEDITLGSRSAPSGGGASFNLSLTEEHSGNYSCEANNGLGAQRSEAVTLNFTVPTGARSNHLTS
As to the kind of experiment: SPR (Biacore 8K+), antibody captured by anti-human IgG, hFCRL1/FcRH1-His as analyte; Steady state affinity model. As for the experimental part: (§1) For the purpose of comparing the binding activity of the DK681 chimeric antibody (chDK681) and the DK1142 chimeric antibody (chDK1142) obtained by connecting […] of the DK681 and DK1142 mouse antibodies obtained in Example 4 to a human IgG1 (S239C) constant region with the binding activity of the anti-FCRL1 humanized antibody obtained in Example 10 to human FCRL1, the binding activity to hFCRL1/FcRH1-His (manufactured by R&D Systems) was measured by a surface plasmon resonance method (SPR method) using Biacore8K+ (manufactured by Cytiva).
(§2) The binding activity of the anti-FCRL1 antibody was measured as follows. An anti-human IgG antibody was immobilized on a CM5 sensor chip (manufactured by Cytiva) in accordance with the attached protocol using a Human Antibody Capture Kit (manufactured by Cytiva). An anti-FCRL1 antibody prepared at 5 μg/mL was added to a flow cell on which the Anti-human IgG antibody was immobilized at a flow rate of 10 μL/min for 30 seconds.
(§3) Next, hFCRL1/FcRH1-His, which is prepared stepwise to 5 concentrations by 3-fold dilution from 10000 ng/ml, was monitored at a flow rate of 30 μL/min for a binding reaction for 180 seconds and a dissociation reaction for 400 seconds. For the obtained sensorgram, a kinetic constant of each antibody was calculated by fitting by a Steady state affinity model or a 1:1 Binding model using Bia Evaluation Software (manufactured by Cytiva). The calculated binding rate constant (ka), dissociation rate constant (kd) and dissociation constant [KD] of each antibody are shown in Table 5. The chDK681 is referred to as DK681 F01, and the chDK1142 is referred to as DK1142 F02.

The target in assay [2] is T1, hFCRL1/FcRH1-His (manufactured by R&D …). As to the kind of experiment: SPR (Biacore 8K+), antibody captured by anti-human IgG, hFCRL1/FcRH1-His as analyte; Steady state affinity model; KD from Steady state affinity model, not from kd/ka. On the procedure:
as §1
(§4) The binding activity of the anti-FCRL1 antibody was measured as follows. An anti-human IgG antibody was immobilized on a CM5 sensor chip (manufactured by Cytiva) in accordance with the attached protocol using a Human Antibody Capture Kit (manufactured by Cytiva). […]
(§5) Next, hFCRL1/FcRH1-His, which is prepared stepwise to 5 concentrations by 3-fold dilution from 10000 ng/ml, was monitored at a flow rate of 30 μL/min for a binding reaction for 180 seconds and a dissociation reaction for 400 seconds. For the obtained sensorgram, a kinetic constant of each antibody was calculated by fitting by a Steady state affinity model or a 1:1 Binding model using Bia Evaluation Software (manufactured by Cytiva). The calculated binding rate constant (ka), dissociation rate constant (kd) and dissociation constant [KD] of each antibody are shown in Table 5. […]
A general note: In SPR one partner is held on a chip, and binding of the other changes the refractive index at the surface.

For assay [3] the target is unchanged. The assay can be described thus: SPR (Biacore 8K+), antibody captured by anti-human IgG, hFCRL1/FcRH1-His as analyte; Steady state affinity model; kinetic rate constant of the same sensorgram. As for the experimental part: as §1, §4, §5
Assay [4] addresses T2, human FCRL1 (NCBI accession number: NP_443170.1), transiently expressed on 293T cells (human, UniProt Q96LA6 17-429).
T2 construct: also called Fc receptor-like protein 1; CD307a
T2 sequence: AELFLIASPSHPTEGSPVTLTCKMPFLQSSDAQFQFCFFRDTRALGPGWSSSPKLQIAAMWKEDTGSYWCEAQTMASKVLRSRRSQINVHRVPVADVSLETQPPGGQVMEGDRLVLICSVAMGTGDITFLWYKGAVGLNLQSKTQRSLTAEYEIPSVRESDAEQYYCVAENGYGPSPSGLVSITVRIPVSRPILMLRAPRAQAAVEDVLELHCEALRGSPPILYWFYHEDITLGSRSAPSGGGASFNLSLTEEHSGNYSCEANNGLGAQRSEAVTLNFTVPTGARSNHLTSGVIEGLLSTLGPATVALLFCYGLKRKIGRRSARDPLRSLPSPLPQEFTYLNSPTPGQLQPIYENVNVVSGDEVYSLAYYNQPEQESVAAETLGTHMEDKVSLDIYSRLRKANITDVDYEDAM
As to the kind of experiment: flow cytometry on 293T cells transiently expressing human FCRL1; apparent KD from EC50 of a 4-parameter fit. On the procedure:
(§6) An antigen-specific reactivity of the novel anti-human FCRL1 mouse antibody obtained in Example 4 was evaluated by Flow Cytometry (FCM). FCRL1 antigen-expressing cells were prepared by transiently expressing the recombinant FCRL1 antigen on 293T cells. A codon-optimized cDNA was synthesized based on the amino acid sequence of human FCRL1 (NCBI accession number: NP_443170.1) or cynomolgus monkey FCRL1 (XP_015310712), and a fragment in which the sequence of an internal ribosome entry site (IRES) derived from the encephalomyocarditis virus (EMCV) and the sequence of TagBFP were arranged in tandem was cloned into pcDNA 3.1hygro to construct an expression plasmid vector for human FCRL1 or cynomolgus monkey FCRL1. The purified expression vector was transfected into 293T cells, cells were collected 2 days after transfection, and binding with each antibody was confirmed by FCM.
(§7) As the secondary antibody, when the sample is a mouse antibody, R-Phycoerythrin (PE) F(ab′)₂ Fragment Goat Anti-Mouse IgG (H+L) (Jackson ImmunoResearch) was used, and when the sample is a human antibody or a human chimeric antibody, R-Phycoerythrin (PE) F(ab′)₂ Fragment Goat Anti-Human IgG, Fcγ Fragment Specific (Jackson ImmunoResearch) was used. A solution of each secondary antibody was prepared by diluting the stock solution 200 times with an FCM buffer. After washing once, cells in each well were suspended with 100 μL of FCM buffer, and binding to each antibody was confirmed by flow cytometry (FCM).
(§8) Cells that transiently expressed human FCRL1 or cynomolgus monkey FCRL1 were reacted with a 3-fold dilution series of each antibody starting from 100 nM (15 μg/ml) at 12 points. Data obtained by the FCM was analyzed, and a binding amount of each antibody bound to the cell was calculated as a fluorescence amount MFI derived from the PE-labeled secondary antibody. An antibody concentration and the measured MFI were plotted with respect to a logarithm of the antibody concentration, a saturated binding curve of each antibody was obtained, and regression was performed by a 4-parameter logistic model.

Assay [5] deals with T3, cynomolgus monkey FCRL1 (XP_015310712), transiently expressed on 293T cells (cynomolgus monkey).
T3 chain: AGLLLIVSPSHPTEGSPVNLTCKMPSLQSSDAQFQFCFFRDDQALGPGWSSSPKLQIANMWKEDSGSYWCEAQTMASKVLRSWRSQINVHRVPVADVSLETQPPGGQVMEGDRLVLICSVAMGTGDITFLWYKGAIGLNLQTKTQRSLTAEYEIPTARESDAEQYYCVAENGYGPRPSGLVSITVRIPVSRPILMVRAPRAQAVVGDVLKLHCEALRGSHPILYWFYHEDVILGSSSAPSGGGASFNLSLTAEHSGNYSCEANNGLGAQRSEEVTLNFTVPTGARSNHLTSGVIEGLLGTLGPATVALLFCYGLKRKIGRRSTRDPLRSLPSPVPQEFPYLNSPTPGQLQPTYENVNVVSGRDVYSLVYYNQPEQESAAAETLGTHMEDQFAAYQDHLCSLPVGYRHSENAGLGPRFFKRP
The assay can be described thus: flow cytometry on 293T cells transiently expressing cynomolgus monkey FCRL1; apparent KD from EC50 of a 4-parameter fit. On the procedure: as §6, §7, §8
On the technique in general: A flow cytometer gives signals particle by particle.

Assay [6] has as its target T1, hFCRL1/FcRH1-His (manufactured by R&D …). The assay can be described thus: SPR (Biacore 8K+), antibody captured by anti-human IgG, hFCRL1/FcRH1-His as analyte; 1:1 Binding model. As for the experimental part:
as §1, §2, §3

Changes are numbered by the printed parent chain. In names and notes the source's numbering stands.

B1: DK681 humanized antibody DK681 F12, human IgG1 (S239C) (antibody)
heavy: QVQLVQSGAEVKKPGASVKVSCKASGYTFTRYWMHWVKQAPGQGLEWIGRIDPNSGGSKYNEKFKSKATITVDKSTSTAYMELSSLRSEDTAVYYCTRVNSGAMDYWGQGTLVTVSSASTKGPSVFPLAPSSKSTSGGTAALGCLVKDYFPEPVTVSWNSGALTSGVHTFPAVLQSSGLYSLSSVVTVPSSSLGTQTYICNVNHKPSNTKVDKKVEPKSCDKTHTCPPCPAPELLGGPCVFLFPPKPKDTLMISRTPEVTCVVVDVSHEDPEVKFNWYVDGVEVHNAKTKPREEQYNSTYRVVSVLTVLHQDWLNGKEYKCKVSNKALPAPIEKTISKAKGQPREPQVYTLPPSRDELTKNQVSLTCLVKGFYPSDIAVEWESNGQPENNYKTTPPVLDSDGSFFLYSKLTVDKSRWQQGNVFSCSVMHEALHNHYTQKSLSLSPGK
light: DIVMTQSPDSLAVSLGERATMNCKSSQSLLYSSNQKNYLAWYQQKPGQSPKLLIYWASTRESGVPDRFSGSGSGTDFTLTISSLQAEDVAIYYCQQYSNYPTFGQGTKVEIK
For the molecule B1, in assay [1], the Kd was found to be 9.15 nM, the koff was 0.00259 s⁻¹ and the kon turned out to be 385000 M⁻¹ s⁻¹.

B2: DK681 humanized antibody DK681 F13, human IgG1 (S239C) (antibody)
heavy: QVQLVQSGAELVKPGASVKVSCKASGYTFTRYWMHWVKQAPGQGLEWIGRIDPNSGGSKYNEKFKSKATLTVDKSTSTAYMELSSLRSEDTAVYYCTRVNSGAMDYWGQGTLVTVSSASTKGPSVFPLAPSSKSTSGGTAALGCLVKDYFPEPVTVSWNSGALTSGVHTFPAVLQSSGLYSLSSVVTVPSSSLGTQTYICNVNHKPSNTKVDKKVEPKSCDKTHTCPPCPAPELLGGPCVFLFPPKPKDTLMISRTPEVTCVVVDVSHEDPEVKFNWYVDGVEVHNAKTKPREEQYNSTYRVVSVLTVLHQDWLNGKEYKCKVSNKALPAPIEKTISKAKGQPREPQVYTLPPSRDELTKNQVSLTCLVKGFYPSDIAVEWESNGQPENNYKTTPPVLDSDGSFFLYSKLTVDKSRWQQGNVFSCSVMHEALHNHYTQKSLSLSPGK
light: B1 light
As for B2, in assay [1], the Kd came to 9.84 nM, the koff came out at 0.00297 s⁻¹ and the kon came out at 387000 M⁻¹ s⁻¹.

B3: DK681 chimeric antibody (chDK681), human IgG1 (S239C) (antibody)
heavy: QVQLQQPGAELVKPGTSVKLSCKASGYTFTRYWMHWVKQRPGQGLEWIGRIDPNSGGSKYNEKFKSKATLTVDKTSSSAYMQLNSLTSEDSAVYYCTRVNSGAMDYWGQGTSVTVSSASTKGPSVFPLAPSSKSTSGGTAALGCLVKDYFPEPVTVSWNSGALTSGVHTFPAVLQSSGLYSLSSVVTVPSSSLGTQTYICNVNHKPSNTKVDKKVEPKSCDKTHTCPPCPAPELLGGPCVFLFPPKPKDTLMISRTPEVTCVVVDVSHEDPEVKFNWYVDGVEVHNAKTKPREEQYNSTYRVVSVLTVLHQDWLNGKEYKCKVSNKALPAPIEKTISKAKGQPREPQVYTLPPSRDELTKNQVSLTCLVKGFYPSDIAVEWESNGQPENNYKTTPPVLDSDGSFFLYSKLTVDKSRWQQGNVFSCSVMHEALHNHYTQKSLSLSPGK
light: DIVMSQSPSSLAVSVGEKVTMSCKSSQSLLYSSNQKNYLAWYQQKPGQSPKLLIYWASTRESGVPDRFTGSGSGTDFTLTISSVKAEDLAIYYCQQYSNYPTFGSGTKLEIK
notes: also called DK681 F01; not shown: human kappa light chain constant region (pFUSE2-CLIg-hk vector)
For B3, the Kd in assay [2] is 6.65 nM. In addition, in assay [3], the koff was 0.00105 s⁻¹ and the kon amounted to 447000 M⁻¹ s⁻¹.

B4: anti-human FCRL1 mouse monoclonal antibody DK681 (antibody, V domains shown)
VH: QVQLQQPGAELVKPGTSVKLSCKASGYTFTRYWMHWVKQRPGQGLEWIGRIDPNSGGSKYNEKFKSKATLTVDKTSSSAYMQLNSLTSEDSAVYYCTRVNSGAMDYWGQGTSVTVSS
VL: B3 light
Turning to B4, the Kd was 1 nM in assay [4] and 0.8 nM in assay [5].

B5: anti-human FCRL1 mouse monoclonal antibody DK1141 (antibody, V domains shown)
VH: EVRLVESGGRLVQPKGSLRLSCAVSGFTFNTYAMYWIRQAPGKGLEWVARIRSKTNNFATYYADSVKDRFTISRDDSQSMLYLQMNNLKTEDTAMYYCVRDNSGSFDYWGQGTTLTVSS
VL: DIVMAQSPSSLAVSVGEKVTMSCKSSQSLLHSSNQKNYLAWYQQKPGQSPNLLIYWASSRESGVPDRFTGSGSGTDFTLTISSVQAEDLATYYCQQYYSYPTFGAGTKLDLK
On to B5, for which the Kd in assay [4] was 1.6 nM; in assay [5], 0.8 nM.

B6: anti-human FCRL1 mouse monoclonal antibody DK1164 (antibody, V domains shown)
VH: QVQLQQSGTELVRPGTSVKVSCKASGYAFTNYLIEWVKQRPGQGLEWIGVINPGSGGTDYNKKFKGKAMLTADKSSNTAYMQLSSLTSDDSAVYFCARSNSYAMDYWGQGTSVTVSS
VL: DIVMSQSPSSLAVSVGEKVTVSCKSSQSLLYSGNQKNNLAWYKQKPGQSPKLLIYWASTRESGVPDRFTGSGSGTDFTLTMSSVKAEDLAVYYCQQYYSYPWTFGGGTKLEIK
B6: the Kd in assay [4] came out at 2.3 nM; in assay [5], 1.4 nM.

B7: DK1142 humanized antibody DK1142 F22, human IgG1 (S239C) (antibody)
heavy: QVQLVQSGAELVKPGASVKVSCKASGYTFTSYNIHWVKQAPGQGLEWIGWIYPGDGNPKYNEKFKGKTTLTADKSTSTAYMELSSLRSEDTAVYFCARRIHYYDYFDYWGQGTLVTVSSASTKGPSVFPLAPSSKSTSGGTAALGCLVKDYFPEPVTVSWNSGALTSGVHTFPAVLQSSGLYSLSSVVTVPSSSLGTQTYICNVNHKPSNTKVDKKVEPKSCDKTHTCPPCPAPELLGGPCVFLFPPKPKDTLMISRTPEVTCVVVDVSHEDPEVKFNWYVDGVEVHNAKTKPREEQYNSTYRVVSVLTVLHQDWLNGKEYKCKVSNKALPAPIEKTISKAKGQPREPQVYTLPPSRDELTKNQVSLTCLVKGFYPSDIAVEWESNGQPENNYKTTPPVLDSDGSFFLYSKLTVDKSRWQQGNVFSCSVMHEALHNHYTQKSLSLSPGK
light: DIVMTQSPLSLPVTLGEPASISCRSSQSIVHSNGNTYLEWYLQKPGQSPQLLIYKVSNRFSGVPDRFSGSGSGTDFTLKISRVEAEDVGVYYCFQGSHVPWTFGQGTKVEIK
Consider B7, for which, in assay [6], the Kd was determined as 11.1 nM, the koff worked out at 0.0428 s⁻¹ and the kon was 3.85e+06 M⁻¹ s⁻¹.

B8: DK1142 humanized antibody DK1142 F21, human IgG1 (S239C) (antibody)
heavy: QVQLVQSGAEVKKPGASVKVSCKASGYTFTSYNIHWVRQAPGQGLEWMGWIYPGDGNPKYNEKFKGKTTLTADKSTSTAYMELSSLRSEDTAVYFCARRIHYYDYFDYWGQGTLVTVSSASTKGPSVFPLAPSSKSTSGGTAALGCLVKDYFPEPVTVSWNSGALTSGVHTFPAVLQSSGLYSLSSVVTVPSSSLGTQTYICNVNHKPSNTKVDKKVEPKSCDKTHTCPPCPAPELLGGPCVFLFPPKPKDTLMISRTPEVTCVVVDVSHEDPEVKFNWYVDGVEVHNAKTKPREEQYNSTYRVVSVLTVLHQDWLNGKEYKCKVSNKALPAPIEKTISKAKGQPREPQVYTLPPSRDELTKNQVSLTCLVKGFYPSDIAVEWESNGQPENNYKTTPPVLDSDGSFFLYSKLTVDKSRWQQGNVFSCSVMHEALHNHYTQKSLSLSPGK
light: B7 light
On to B8, for which, in assay [6], the Kd amounted to 12.8 nM, the koff stood at 0.0686 s⁻¹ and the kon is 5.36e+06 M⁻¹ s⁻¹.

B9: DK1142 humanized antibody DK1142 F24, human IgG1 (S239C) (antibody)
heavy: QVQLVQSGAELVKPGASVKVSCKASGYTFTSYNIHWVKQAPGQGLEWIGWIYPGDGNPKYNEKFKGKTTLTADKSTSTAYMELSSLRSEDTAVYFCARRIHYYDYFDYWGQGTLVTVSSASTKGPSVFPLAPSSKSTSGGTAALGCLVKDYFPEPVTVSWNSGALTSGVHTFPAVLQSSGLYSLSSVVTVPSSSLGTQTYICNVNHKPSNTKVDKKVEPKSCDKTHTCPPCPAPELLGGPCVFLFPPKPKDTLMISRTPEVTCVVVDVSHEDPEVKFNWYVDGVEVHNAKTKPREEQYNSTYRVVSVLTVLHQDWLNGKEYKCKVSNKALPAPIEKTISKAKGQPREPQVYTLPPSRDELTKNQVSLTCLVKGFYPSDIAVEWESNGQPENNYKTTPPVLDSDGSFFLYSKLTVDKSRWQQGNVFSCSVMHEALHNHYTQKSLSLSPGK
light: B7 light with I2V, Q50K, V56I
Turning to B9, in assay [6], the Kd is 12.2 nM, the koff worked out at 0.0274 s⁻¹ and the kon worked out at 2.24e+06 M⁻¹ s⁻¹.

B10: anti-human FCRL1 mouse monoclonal antibody DK1142 (antibody, V domains shown)
VH: QVQLQQSGPELVKPGASVRISCKASGYTFTSYNIHWVKQRPGQGLEWIGWIYPGDGNPKYNEKFKGKTTLTADKSSSTAYMQLSSLTSEDSAVYFCARRIHYYDYFDYWGQGTTLTVSS
VL: DVLMTQTPLSLPVSLGDQASISCRSSQSIVHSNGNTYLEWYLQKPGQSPKLLIYKVSNRFSGVPDRFSGSGSGTDFTLKISRVEADDLGVYYCFQGSHVPWTFGGGTKLEIK
On to B10, for which the Kd in assay [4] was determined as 1.4 nM; in assay [5], 1.1 nM.

B11: DK1142 chimeric antibody (chDK1142), human IgG1 (S239C) (antibody)
heavy: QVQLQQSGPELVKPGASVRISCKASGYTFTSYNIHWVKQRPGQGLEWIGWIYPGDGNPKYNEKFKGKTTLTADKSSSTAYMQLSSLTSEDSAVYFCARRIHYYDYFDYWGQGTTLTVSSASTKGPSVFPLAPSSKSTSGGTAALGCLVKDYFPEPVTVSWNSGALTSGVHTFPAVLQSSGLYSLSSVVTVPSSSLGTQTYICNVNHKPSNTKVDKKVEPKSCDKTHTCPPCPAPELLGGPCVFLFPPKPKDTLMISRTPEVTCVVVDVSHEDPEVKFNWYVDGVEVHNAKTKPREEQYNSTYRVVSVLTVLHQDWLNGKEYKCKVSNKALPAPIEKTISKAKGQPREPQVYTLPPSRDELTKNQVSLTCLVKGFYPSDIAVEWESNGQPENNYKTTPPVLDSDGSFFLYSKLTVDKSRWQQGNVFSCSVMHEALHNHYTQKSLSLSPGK
light: B10 VL
notes: also called DK1142 F02; not shown: human kappa light chain constant region (pFUSE2-CLIg-hk vector)
In assay [6], B11 returned a Kd of 11.4 nM, a koff of 0.0518 s⁻¹ and a kon of 4.55e+06 M⁻¹ s⁻¹.

B12: anti-human FCRL1 mouse monoclonal antibody DK1166 (antibody, V domains shown)
VH: B10 VH with P58T, Y103F, V117L
VL: B10 VL with A19V, S26G, S28T, K79R, D86E
Turning to B12, the results for the Kd in assay [4] and in assay [5] were 1.5 nM and 1 nM, respectively.

What is called koff is the rate constant with which the complex falls apart. A word on the kon: it is a measure of how fast the partners come together.

The record behind these values is patent US20250382371A1 (NATIONAL INSTITUTES OF BIOMEDICAL INNOVATION HEALTH AND …, published 2025).
